Data as given in patent US20250186620A1 (DUKE UNIVERSITY, published 2025).

T1: human connexin36 (Cx36) (human, UniProt Q9UKL4 1-321)
T1 construct: whole, on cells; Hemichannel expressed in HEK 293FT cells for FETCH; also called GJD2; not shown: C-terminal fluorescent protein fusion (mEmerald or RFP670 in FETCH)
T1 sequence (looked up): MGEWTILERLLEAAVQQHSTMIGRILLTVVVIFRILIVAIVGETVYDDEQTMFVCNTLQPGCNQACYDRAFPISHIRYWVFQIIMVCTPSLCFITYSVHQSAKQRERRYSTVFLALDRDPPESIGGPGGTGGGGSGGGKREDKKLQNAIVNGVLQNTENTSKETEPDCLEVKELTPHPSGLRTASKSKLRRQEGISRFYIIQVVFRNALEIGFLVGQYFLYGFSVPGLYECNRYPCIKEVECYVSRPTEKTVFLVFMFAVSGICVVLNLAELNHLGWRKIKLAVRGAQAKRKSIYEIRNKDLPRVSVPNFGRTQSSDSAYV


How the values were obtained:
[1] = target: the molecule itself; test: homotypic FETCH screen
Experimental: (§1) Complete FETCH methodology is outlined in Ransey et. al. 2021 (Ransey E, et al. (2021) BioRxiv). Briefly, replica multi-well plates with HEK 293FT cells were transfected with either of the two connexin proteins being evaluated for docking. Following a transfection incubation period, experimental counterparts were combined, replated, and further incubated for about 20 hr to about 24 hrs, allowing cells to make contacts and potentially generate connexosomes. Co-plated samples were trypsinized, fixed in suspension and analyzed via flow cytometry. Flow cytometry data was processed with two selection gates prior to their fluorescence evaluation. First, putative HEK cells were identified by evaluating sample forward vs. side scatter area. Next, single cells were identified as the putative cells that maintained a linear correlation of forward scatter height to forward scatter area. Finally, the dual fluorescence (mEmerald vs. RFP670) profiles of each sample was generated, and the FETCH score was defined as the proportion of dual-labeled fluorescent cells that develop in a co-plated sample.
For screening analysis, five FETCH replicates were obtained for each condition (mutation). These scores were benchmarked against scores for Cx36 and Cx45 (FETCH=1.2±0.1%, n=54 replicates). To quantitatively determine whether a connexin pair docked, FETCH scores were determined for the dual fluorescence of cells under conditions where docking was not anticipated. These conditions included pairs of connexins previously established to not show docking: (i) Cx36 and Cx45 (FETCH=0.7±0.0%, n=59 replicates), (ii) homotypic Cx23 (FETCH=0.9±0.4%, n=6 previously collected replicates (Ransey E, et al. (2021) BioRxiv), and (iii) Cx36 and Cx43 (FETCH=1.2±0.2%, n=10 previously collected replicates (Ransey E, et al. (2021) BioRxiv), and under conditions for which cells were transfected with cytoplasmic fluorophores rather than tagged connexins (FETCH=4.4±0.6%, n=17 previously collected replicates (Ransey E, et al. (2021) BioRxiv).

[2] = target: T1, human connexin36 (Cx36); test: FETCH (flow cytometry, % dual-labelled HEK 293FT cells), heterotypic
Experimental: as §1

[3] = target: T2, human connexin43 (Cx43) (human, UniProt P17302 2-382); test: heterotypic FETCH
T2 construct: whole, on cells; Hemichannel expressed in HEK 293FT cells for FETCH; also called GJA1; not shown: C-terminal fluorescent protein fusion (mEmerald or RFP670 in FETCH)
Experimental: as §1

[4] = target: T2, human connexin43 (Cx43); test: FETCH (flow cytometry, % dual-labelled HEK 293FT cells), heterotypic, n=6
Experimental: as §1

T2 sequence (P17302 2-382): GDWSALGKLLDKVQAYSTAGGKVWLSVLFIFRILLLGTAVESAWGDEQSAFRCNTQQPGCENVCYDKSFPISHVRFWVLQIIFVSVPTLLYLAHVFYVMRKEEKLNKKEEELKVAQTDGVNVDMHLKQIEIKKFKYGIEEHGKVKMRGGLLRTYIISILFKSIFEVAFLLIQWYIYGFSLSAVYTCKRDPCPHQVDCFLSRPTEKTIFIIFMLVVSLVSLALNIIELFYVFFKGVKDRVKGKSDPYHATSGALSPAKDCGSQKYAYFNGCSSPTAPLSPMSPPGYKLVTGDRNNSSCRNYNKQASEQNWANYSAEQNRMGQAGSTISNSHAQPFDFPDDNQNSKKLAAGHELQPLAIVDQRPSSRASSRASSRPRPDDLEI

Row | Binder | binding result [1] | further results
1 | Cx34.7 mutant Y78S (Morone americana) (other, Extracellular loop mutant of the screening library; also called Cx34.7 Y78S; not shown: C-terminal fluorescent protein fusion (mEmerald or RFP670 in FETCH)) MGEWTILERLLEAAVQQHSTMIGRILLTVVVIFRILIVAIVGETVYEDEQAMFICNTLQPGCNQACYDKAFPISHIRSWVFQIILVCTPSLCFITYSVHQSAKQKDRRYSFLYPIMERDYGGRDGARKLRNINGILVQHGGDGGGGKEEPDCLEVKEIPNAPRGLTHGKSSKVRRQEGISRFYIIQVVFRNALEIGFLAGQYFLYGFSVPGIFECDRYPCLKEVECYVSRPTEKTVFLVFMFAVSGICVVLNLAELNHLGWRKIKAAIRGVQARRKSICEIRKKDMAHLSQPPNLGRTQSSESAYV | no binding | –
2 | Cx34.7 mutant L238Y (Morone americana) (other, Extracellular loop mutant of the screening library; also called Cx34.7 L238Y; not shown: C-terminal fluorescent protein fusion (mEmerald or RFP670 in FETCH)) MGEWTILERLLEAAVQQHSTMIGRILLTVVVIFRILIVAIVGETVYEDEQAMFICNTLQPGCNQACYDKAFPISHIRYWVFQIILVCTPSLCFITYSVHQSAKQKDRRYSFLYPIMERDYGGRDGARKLRNINGILVQHGGDGGGGKEEPDCLEVKEIPNAPRGLTHGKSSKVRRQEGISRFYIIQVVFRNALEIGFLAGQYFLYGFSVPGIFECDRYPCLKEVECYVSRPTEKTVFYVFMFAVSGICVVLNLAELNHLGWRKIKAAIRGVQARRKSICEIRKKDMAHLSQPPNLGRTQSSESAYV | no binding | –
3 | Cx34.7 mutant E225R (Morone americana) (other, Extracellular loop mutant of the screening library; also called Cx34.7 E225R; not shown: C-terminal fluorescent protein fusion (mEmerald or RFP670 in FETCH)) MGEWTILERLLEAAVQQHSTMIGRILLTVVVIFRILIVAIVGETVYEDEQAMFICNTLQPGCNQACYDKAFPISHIRYWVFQIILVCTPSLCFITYSVHQSAKQKDRRYSFLYPIMERDYGGRDGARKLRNINGILVQHGGDGGGGKEEPDCLEVKEIPNAPRGLTHGKSSKVRRQEGISRFYIIQVVFRNALEIGFLAGQYFLYGFSVPGIFECDRYPCLKEVRCYVSRPTEKTVFLVFMFAVSGICVVLNLAELNHLGWRKIKAAIRGVQARRKSICEIRKKDMAHLSQPPNLGRTQSSESAYV | no binding | –
4 | Cx34.7 mutant E225K (Morone americana) (other, Extracellular loop mutant of the screening library; also called Cx34.7 E225K; not shown: C-terminal fluorescent protein fusion (mEmerald or RFP670 in FETCH)) MGEWTILERLLEAAVQQHSTMIGRILLTVVVIFRILIVAIVGETVYEDEQAMFICNTLQPGCNQACYDKAFPISHIRYWVFQIILVCTPSLCFITYSVHQSAKQKDRRYSFLYPIMERDYGGRDGARKLRNINGILVQHGGDGGGGKEEPDCLEVKEIPNAPRGLTHGKSSKVRRQEGISRFYIIQVVFRNALEIGFLAGQYFLYGFSVPGIFECDRYPCLKEVKCYVSRPTEKTVFLVFMFAVSGICVVLNLAELNHLGWRKIKAAIRGVQARRKSICEIRKKDMAHLSQPPNLGRTQSSESAYV | no binding | –
5 | Cx34.7 mutant Y78T (Morone americana) (other, Extracellular loop mutant of the screening library; also called Cx34.7 Y78T; not shown: C-terminal fluorescent protein fusion (mEmerald or RFP670 in FETCH)) MGEWTILERLLEAAVQQHSTMIGRILLTVVVIFRILIVAIVGETVYEDEQAMFICNTLQPGCNQACYDKAFPISHIRTWVFQIILVCTPSLCFITYSVHQSAKQKDRRYSFLYPIMERDYGGRDGARKLRNINGILVQHGGDGGGGKEEPDCLEVKEIPNAPRGLTHGKSSKVRRQEGISRFYIIQVVFRNALEIGFLAGQYFLYGFSVPGIFECDRYPCLKEVECYVSRPTEKTVFLVFMFAVSGICVVLNLAELNHLGWRKIKAAIRGVQARRKSICEIRKKDMAHLSQPPNLGRTQSSESAYV | no binding | –
6 | Cx34.7 mutant Y78V (Morone americana) (other, Extracellular loop mutant of the screening library; also called Cx34.7 Y78V; not shown: C-terminal fluorescent protein fusion (mEmerald or RFP670 in FETCH)) MGEWTILERLLEAAVQQHSTMIGRILLTVVVIFRILIVAIVGETVYEDEQAMFICNTLQPGCNQACYDKAFPISHIRVWVFQIILVCTPSLCFITYSVHQSAKQKDRRYSFLYPIMERDYGGRDGARKLRNINGILVQHGGDGGGGKEEPDCLEVKEIPNAPRGLTHGKSSKVRRQEGISRFYIIQVVFRNALEIGFLAGQYFLYGFSVPGIFECDRYPCLKEVECYVSRPTEKTVFLVFMFAVSGICVVLNLAELNHLGWRKIKAAIRGVQARRKSICEIRKKDMAHLSQPPNLGRTQSSESAYV | no binding | –
7 | Wild-type Connexin35 (Cx35) of Morone americana (other, Connexin hemichannel (hexamer) expressed in HEK 293FT cells; In C. elegans it was expressed as GFP or mCherry fusion; also called Cx35WT; not shown: C-terminal fluorescent protein fusion (mEmerald or RFP670 in FETCH)) MGEWTILERLLEAAVQQHSTMIGRILLTVVVIFRILIVAIVGETVYDDEQTMFVCNTLQPGCNQACYDKAFPISHIRYWVFQIIMVCTPSLCFITYSVHQSAKQKERRYSTVYLTLDKDQDSLKRDESKKIKNTIVNGVLQNTENSTKEAEPDCLEVKEIPNSAMRTTKSKMRRQEGISRFYIIQVVFRNALEIGFLVGQYFLYGFNVPSVYECDRYPCIKDVECYVSRPTEKTVFLVFMFAVSGFCVVLNLAELNHLGWRKIKTAVRGVQARRKSIYEIRNKDLPRMSVPNFGRTQSSDSAYV | – | FETCH score [2]: 18%
8 | Cx35E224H (Morone americana Cx35 mutant E224H) (other, Extracellular loop mutant of the screening library; not shown: C-terminal fluorescent protein fusion (mEmerald or RFP670 in FETCH)) MGEWTILERLLEAAVQQHSTMIGRILLTVVVIFRILIVAIVGETVYDDEQTMFVCNTLQPGCNQACYDKAFPISHIRYWVFQIIMVCTPSLCFITYSVHQSAKQKERRYSTVYLTLDKDQDSLKRDESKKIKNTIVNGVLQNTENSTKEAEPDCLEVKEIPNSAMRTTKSKMRRQEGISRFYIIQVVFRNALEIGFLVGQYFLYGFNVPSVYECDRYPCIKDVHCYVSRPTEKTVFLVFMFAVSGFCVVLNLAELNHLGWRKIKTAVRGVQARRKSIYEIRNKDLPRMSVPNFGRTQSSDSAYV | no binding | binding result [3]: no binding; FETCH score [2]: 5.9%; FETCH score [4]: 0.4%
9 | Cx35 mutant N56E (Morone americana) (other, Extracellular loop mutant of the screening library; also called Cx35 N56E; not shown: C-terminal fluorescent protein fusion (mEmerald or RFP670 in FETCH)) MGEWTILERLLEAAVQQHSTMIGRILLTVVVIFRILIVAIVGETVYDDEQTMFVCETLQPGCNQACYDKAFPISHIRYWVFQIIMVCTPSLCFITYSVHQSAKQKERRYSTVYLTLDKDQDSLKRDESKKIKNTIVNGVLQNTENSTKEAEPDCLEVKEIPNSAMRTTKSKMRRQEGISRFYIIQVVFRNALEIGFLVGQYFLYGFNVPSVYECDRYPCIKDVECYVSRPTEKTVFLVFMFAVSGFCVVLNLAELNHLGWRKIKTAVRGVQARRKSIYEIRNKDLPRMSVPNFGRTQSSDSAYV | no binding | –
10 | Cx35 mutant Y78T (Morone americana) (other, Extracellular loop mutant of the screening library; also called Cx35 Y78T; not shown: C-terminal fluorescent protein fusion (mEmerald or RFP670 in FETCH)) MGEWTILERLLEAAVQQHSTMIGRILLTVVVIFRILIVAIVGETVYDDEQTMFVCNTLQPGCNQACYDKAFPISHIRTWVFQIIMVCTPSLCFITYSVHQSAKQKERRYSTVYLTLDKDQDSLKRDESKKIKNTIVNGVLQNTENSTKEAEPDCLEVKEIPNSAMRTTKSKMRRQEGISRFYIIQVVFRNALEIGFLVGQYFLYGFNVPSVYECDRYPCIKDVECYVSRPTEKTVFLVFMFAVSGFCVVLNLAELNHLGWRKIKTAVRGVQARRKSIYEIRNKDLPRMSVPNFGRTQSSDSAYV | no binding | –
11 | Cx35 mutant L237Y (Morone americana) (other, Extracellular loop mutant of the screening library; also called Cx35 L237Y; not shown: C-terminal fluorescent protein fusion (mEmerald or RFP670 in FETCH)) MGEWTILERLLEAAVQQHSTMIGRILLTVVVIFRILIVAIVGETVYDDEQTMFVCNTLQPGCNQACYDKAFPISHIRYWVFQIIMVCTPSLCFITYSVHQSAKQKERRYSTVYLTLDKDQDSLKRDESKKIKNTIVNGVLQNTENSTKEAEPDCLEVKEIPNSAMRTTKSKMRRQEGISRFYIIQVVFRNALEIGFLVGQYFLYGFNVPSVYECDRYPCIKDVECYVSRPTEKTVFYVFMFAVSGFCVVLNLAELNHLGWRKIKTAVRGVQARRKSIYEIRNKDLPRMSVPNFGRTQSSDSAYV | no binding | –
12 | Cx35 mutant Y78S (Morone americana) (other, Extracellular loop mutant of the screening library; also called Cx35 Y78S; not shown: C-terminal fluorescent protein fusion (mEmerald or RFP670 in FETCH)) MGEWTILERLLEAAVQQHSTMIGRILLTVVVIFRILIVAIVGETVYDDEQTMFVCNTLQPGCNQACYDKAFPISHIRSWVFQIIMVCTPSLCFITYSVHQSAKQKERRYSTVYLTLDKDQDSLKRDESKKIKNTIVNGVLQNTENSTKEAEPDCLEVKEIPNSAMRTTKSKMRRQEGISRFYIIQVVFRNALEIGFLVGQYFLYGFNVPSVYECDRYPCIKDVECYVSRPTEKTVFLVFMFAVSGFCVVLNLAELNHLGWRKIKTAVRGVQARRKSIYEIRNKDLPRMSVPNFGRTQSSDSAYV | no binding | –
13 | Cx35 mutant Y78V (Morone americana) (other, Extracellular loop mutant of the screening library; also called Cx35 Y78V; not shown: C-terminal fluorescent protein fusion (mEmerald or RFP670 in FETCH)) MGEWTILERLLEAAVQQHSTMIGRILLTVVVIFRILIVAIVGETVYDDEQTMFVCNTLQPGCNQACYDKAFPISHIRVWVFQIIMVCTPSLCFITYSVHQSAKQKERRYSTVYLTLDKDQDSLKRDESKKIKNTIVNGVLQNTENSTKEAEPDCLEVKEIPNSAMRTTKSKMRRQEGISRFYIIQVVFRNALEIGFLVGQYFLYGFNVPSVYECDRYPCIKDVECYVSRPTEKTVFLVFMFAVSGFCVVLNLAELNHLGWRKIKTAVRGVQARRKSIYEIRNKDLPRMSVPNFGRTQSSDSAYV | no binding | –
